Patent US20250205337A1, “COMPOSITIONS AND METHODS FOR ACTIVATING IMMUNE CELLS” (MDX Management LLC, priority 2022, published 2025)
“Also recorded” adds a separate entry of the source.

Assays:
Type in all cases: cell-based, human
[1] = test system: monocytes from cancer patients (cMo); test: cMo survival in vitro (STAT3 activators, inhibitors, M-CSF/GM-CSF, KX1); conditions: for effect of inhibitor on KX1-supported cMo survival: cMo in KX1; for cMo survival (and differentiation) on supplementation: IL-10-depleted KX1 / in place of IL-10
Text: After two days, the T cell culture medium was used to treat cMo.
IL-10/IL-10R signaling activates the downstream STAT3 signaling pathway.
(§1) The mechanisms by which KX1 could promote cMo survival was further studied.

[2] = test system: monocytes from cancer patients (cMo); test: Cytokine depletion assays of Karnelian X1 (cMo survival/adhesion and differentiation); conditions: for role of the cytokine in Karnelian X1 for cMo survival and differentiation: depletion assays
Method: The differentiation of cMo from >100 cancer patient samples was tested.
The role of IL-10 and other key factors in KX1 was further studied.

[3] = test system: Akt, Erk1/2, STAT3, caspase-9 and caspase-3 in cMo; test: Survival and apoptosis signal transduction in cMo (Western blotting)
Text: (§2) Examination of Akt and Erk1/2, as well as other signaling molecules, detected similar total levels in Mo versus cMo (FIG. 2C), ruling out the absence of protein phosphorylation due to reduction of protein translation.
as §1
The role of IL-10 and other key factors in KX1 was further studied. As shown in FIG. 9A-9D, depletion of IL-10 diminished (>70%) KX1-mediated activation of Akt, Erk 1/2, and STAT3, and this global reduction of survival signal was associated with an increase in cell death signal through activation of caspase-9 and caspase-3.
As shown in FIG. 10A-10C, triple cytokine combination (C-combo V1) was capable of achieving >80% cMo differentiation, although each component alone was not sufficient.

[4] = test system: monocytes from healthy donors (Mo); test: Response of monocytes from healthy donors (Mo) to M-CSF and GM-CSF
Text: Similarly, cMo poorly respond to GM-CSF alone or GM-CSF plus IL-4 that drives DC differentiation (data not shown). […] Parallel experiments testing the same M-CSF and GM-CSF reagents successfully differentiated Mo from healthy donors with >90% survival rates.
as §2

[5] = in vitro, at optimal concentration
[6] = promoting cMo survival in vitro
[7] = cytokine depleted from Karnelian X1
[8] = promoting cMo survival in vitro, small molecule STAT3 activators

CC(=O)c1cc2c(o1)C(=O)c1ccccc1C2=O [Napabucasin, reference compound]
effect of inhibitor on KX1-supported cMo survival [1]: dose-dependently nullified the effect of KX1

IL-17: cytokine in Karnelian X1
role of the cytokine in Karnelian X1 for cMo survival and differentiation [2]: dispensable

JAK inhibitor I [reference compound]
effect of inhibitor on KX1-supported cMo survival [1]: dose-dependently nullified the effect of KX1

NC1(Cc2ccc(Cl)cc2)CCN(c2ncnc3[nH]ccc23)CC1 [CCT128930, reference compound]
effect of inhibitor on KX1-supported cMo survival [1]: abrogated KX1 effectiveness

IL-6: Interleukin 6, IL-6 family cytokine
cMo survival (and differentiation) on supplementation [1]: only moderately supported cMo survival and differentiation
Effectiveness (cMo survival rate) [1, 5]: 20-30%
Optimal concentration [1, 6]: 20 to 100 ng/mL
activation of Akt, Erk1/2, STAT3 in cMo [3]: weaker ability to activate Akt in cMo
role of the cytokine in Karnelian X1 for cMo survival and differentiation [2]: variable

N#CC(=C(/N)Sc1ccccc1N)/C(C#N)=C(\N)Sc1ccccc1N [U0126, reference compound]
effect of inhibitor on KX1-supported cMo survival [1]: abrogated KX1 effectiveness

GM-CSF: Granulocyte-macrophage colony-stimulating factor
cMo responsiveness to differentiation factor ([1]; over twenty cMo samples, various solid tumors): non- or poor responsiveness
survival signal transduction in Mo (activation of Akt and Erk1/2) [4]: induced strong survival signal transduction in Mo cells
activation of Akt, Erk1/2, STAT3 in cMo [3]: failed to activate Akt and Erk1/2
caspase-9 and caspase-3 cleavage in cMo [3]: increased caspase-9 and caspase-3 cleavage; also recorded: did induce apoptotic signals via cleavage of caspase-9 and caspase-3
role of the cytokine in Karnelian X1 for cMo survival and differentiation [2]: variable

Cc1[nH]nc2ccc(-c3cncc(OC[C@@H](N)Cc4ccccc4)c3)cc12 [A-674563, reference compound]
effect of inhibitor on KX1-supported cMo survival [1]: abrogated KX1 effectiveness

TNFα
reduction of cMo adhesion and survival on depletion of the cytokine from Karnelian X1 [2, 7]: ~20%

Colivelin TFA [reference compound]
cMo survival (and differentiation) on supplementation [1]: restored cMo survival
Effectiveness (cMo survival rate) [1, 5]: 90-100%
Optimal concentration (ng/mL) [1, 8]: 10000 to 100000 ng/mL

COc1c(O)cc2oc3cc(O)c(CC=C(C)C)c(O)c3c(=O)c2c1CCC(C)(C)O [Garcinone D, reference compound]
cMo survival (and differentiation) on supplementation [1]: restored cMo survival
Effectiveness (cMo survival rate) [1, 5]: 90-100%
Optimal concentration (ng/mL) [1, 8]: 500 to 2000 ng/mL

COc1ccc(S(=O)(=O)Nc2cc(-c3c(O)ccc4ccccc34)c(O)c3ccccc23)cc1 [C188-9, reference compound]
effect of inhibitor on KX1-supported cMo survival [1]: dose-dependently nullified the effect of KX1

B1: IL-10: Interleukin 10, cytokine; recombinant form added back; IL-10 family STAT3 activator (protein, UniProt P22301 19-178, looked up)
Interleukin-10: SPGQGTQSENSCTHFPGNLPNMLRDLRDAFSRVKTFFQMKDQLDNLLLKESLLEDFKGYLGCQALSEMIQFYLEEVMPQAENQDPDIKAHVNSLGENLKTLRLRLRRCHRFLPCENKSKAVEQVKNAFNKLQEKGIYKAMSEFDIFINYIEAYMTMKIRN
cMo survival (and differentiation) on supplementation [1]: dose-dependently restored its survival capacity
Effectiveness (cMo survival rate) [1, 5]: 90-100%
Optimal concentration (ng/mL) [1, 6]: >10 ng/mL (10-100)
diminution of KX1-mediated activation of Akt, Erk 1/2 and STAT3 ([3]; cytokine depleted from KX1): > 70%
remnant cells that survived IL-10 depletion ([2]; IL-10 depleted from Karnelian X1): 5-20%
reduction of cMo adhesion and survival on depletion of the cytokine from Karnelian X1 [2, 7]: 60-80%
role of the cytokine in Karnelian X1 for cMo survival and differentiation [2]: only weakly influence cMo differentiation to APCs

B2: IL-19: IL-10 family cytokine, STAT3 activator (protein, UniProt Q9UHD0 25-177, looked up)
Interleukin-19: LRRCLISTDMHHIEESFQEIKRAIQAKDTFPNVTILSTLETLQIIKPLDVCCVTKNLLAFYVDRVFKDHQEPNPKILRKISSIANSFLYMQKTLRQCQEQRQCHCRQEATNATRVIHDNYDQLEVHAAAIKSLGELDVFLAWINKNHEVMFSA
cMo survival (and differentiation) on supplementation [1]: could replace IL-10 to support cMo survival and differentiation
Effectiveness (cMo survival rate) [1, 5]: 70-85%
Optimal concentration (ng/mL) [1, 6]: >10 ng/mL (10-100)

B3: IL-11: IL-6 family member cytokine (protein, UniProt P20809 22-199, looked up)
Interleukin-11: PGPPPGPPRVSPDPRAELDSTVLLTRSLLADTRQLAAQLRDKFPADGDHNLDSLPTLAMSAGALGALQLPGVLTRLRADLLSYLRHVQWLRRAGGSSLKTLEPELGTLQARLDRLLRRLQLLMSRLALPQPPPDPPAPPLAPPSSAWGGIRAAHAILGGLHLTLDWAVRGLLLLKTRL
cMo survival (and differentiation) on supplementation [1]: only moderately supported cMo survival and differentiation

B4: IFNγ: Interferon gamma, cytokine in Karnelian X1 (protein, UniProt P01579 24-161, looked up)
Interferon gamma: QDPYVKEAENLKKYFNAGHSDVADNGTLFLGILKNWKEESDRKIMQSQIVSFYFKLFKNFKDDQSIQKSVETIKEDMNVKFFNSNKKKRDDFEKLTNYSVTDLNVQRKAIHELIQVMAELSPAAKTGKRKRSQMLFRG
reduction of cMo adhesion and survival on depletion of the cytokine from Karnelian X1 [2, 7]: ~20%

B5: IL-4: Interleukin 4, cytokine in Karnelian X1 (protein, UniProt P05112 25-153, looked up)
Interleukin-4: HKCDITLQEIIKTLNSLTEQKTLCTELTVTDIFAASKNTTEKETFCRAATVLRQFYSHHEKDTRCLGATAQQFHRHKQLIRFLKRLDRNLWGLAGLNSCPVKEANQSTLENFLERLKTIMREKYSKCSS
reduction of cMo differentiation to APCs [2, 7]: ~50%
role of the cytokine in Karnelian X1 for cMo survival and differentiation [2]: did not affect cMo survival/adhesion

B6: IL-22: IL-10 family cytokine, STAT3 activator (protein, UniProt Q9GZX6 34-179, looked up)
Interleukin-22: APISSHCRLDKSNFQQPYITNRTFMLAKEASLADNNTDVRLIGEKLFHGVSMSERCYLMKQVLNFTLEEVLFPQSDRFQPYMQEVVPFLARLSNRLSTCHIEGDDLHIQRNVQKLKDTVKKLGESGEIKAIGELDLLFMSLRNACI
cMo survival (and differentiation) on supplementation [1]: could replace IL-10 to support cMo survival and differentiation
Effectiveness (cMo survival rate) [1, 5]: 80-100%
Optimal concentration (ng/mL) [1, 6]: >10 ng/mL (10-100)

B7: IL-24: IL-10 family cytokine, STAT3 activator (protein, UniProt Q13007 52-206, looked up)
Interleukin-24: QEFHFGPCQVKGVVPQKLWEAFWAVKDTMQAQDNITSARLLQQEVLQNVSDAESCYLVHTLLEFYLKTVFKNYHNRTVEVRTLKSFSTLANNFVLIVSQLQPSQENEMFSIRDSAHRRFLLFRRAFKQLDVEAALTKALGEVDILLTWMQKFYKL
cMo survival (and differentiation) on supplementation [1]: could replace IL-10 to support cMo survival and differentiation
Effectiveness (cMo survival rate) [1, 5]: 70-85%
Optimal concentration (ng/mL) [1, 6]: >20 ng/mL (20-100)

B8: G-CSF: growth factor tested in IL-10-depleted KX1 (protein, UniProt P09919 31-207, looked up)
Granulocyte …: TPLGPASSLPQSFLLKCLEQVRKIQGDGAALQEKLVSECATYKLCHPEELVLLGHSLGIPWAPLSSCPSQALQLAGCLSQLHSGLFLYQGLLQALEGISPELGPTLDTLQLDVADFATTIWQQMEELGMAPALQPTQGAMPAFASAFQRRAGGVLVASHLQSFLEVSYRVLRHLAQP
Effectiveness (cMo survival rate) ([1]; in IL-10-depleted KX1): 30-40% in
Optimal concentration (ng/mL) ([1]; in IL-10-depleted KX1): >1 ng/mL (1-200)

B9: IL-23: IL-12 family cytokine, STAT3 activator (protein, UniProt Q9NPF7 20-189; P29460 23-328, looked up)
Interleukin-23 subunit alpha: RAVPGGSSPAWTQCQQLSQKLCTLAWSAHPLVGHMDLREEGDEETTNDVPHIQCGDGCDPQGLRDNSQFCLQRIHQGLIFYEKLLGSDIFTGEPSLLPDSPVGQLHASLLGLSQLLQPEGHHWETQQIPSLSPSQPWQRLLLRFKILRSLQAFVAVAARVFAHGAATLSP
Interleukin-12 subunit beta: IWELKKDVYVVELDWYPDAPGEMVVLTCDTPEEDGITWTLDQSSEVLGSGKTLTIQVKEFGDAGQYTCHKGGEVLSHSLLLLHKKEDGIWSTDILKDQKEPKNKTFLRCEAKNYSGRFTCWWLTTISTDLTFSVKSSRGSSDPQGVTCGAATLSAERVRGDNKEYEYSVECQEDSACPAAEESLPIEVMVDAVHKLKYENYTSSFFIRDIIKPDPPKNLQLKPLKNSRQVEVSWEYPDTWSTPHSYFSLTFCVQVQGKSKREKKDRVFTDKTSATVICRKNASISVRAQDRYYSSSWSEWASVPCS
cMo survival (and differentiation) on supplementation [1]: could replace IL-10 to support cMo survival and differentiation
Effectiveness (cMo survival rate) [1, 5]: 50-70%
Optimal concentration (ng/mL) [1, 6]: >10 ng/mL (10-100)
